From patent publication US20190177410A1
No end group written: not given here.

Key:
[1] = molecular target: full-length human APLNR (hAPLNR) (human) (UniProt P35414); assay: cell-based or functional assay
[2] = molecular target: human Apelin receptor (hAPLNR) of PathHunter eXpress AGTRL1 CHO-K1 beta-Arrestin cells (human) (UniProt P35414); assay: cell-based or functional assay
[3] = molecular target: full-length human APLNR (hAPLNR) (human) (UniProt P35414); assay: FACS on HEK293/CRE-luc/hAPLNR cells
[4] = molecular target: T1, full length cynomolgus APLNR (MfAPLNR) (cynomolgus (Macaca fascicularis)); assay: FACS on HEK293/CRE-luc/MfAPLNR cells
T1 sequence: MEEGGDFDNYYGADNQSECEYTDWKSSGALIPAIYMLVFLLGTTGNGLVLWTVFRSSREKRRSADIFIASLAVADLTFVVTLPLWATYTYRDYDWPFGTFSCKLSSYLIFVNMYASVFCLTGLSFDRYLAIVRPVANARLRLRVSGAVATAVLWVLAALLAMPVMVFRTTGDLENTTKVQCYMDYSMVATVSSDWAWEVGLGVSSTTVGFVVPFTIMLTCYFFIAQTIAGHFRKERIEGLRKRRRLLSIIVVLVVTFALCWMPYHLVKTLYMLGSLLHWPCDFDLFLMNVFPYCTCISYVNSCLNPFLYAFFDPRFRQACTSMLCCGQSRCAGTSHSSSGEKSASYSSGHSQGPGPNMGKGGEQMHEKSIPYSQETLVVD

% Activation at 100 nM mAb (7.5 uM Forskolin), CRE-luc [1]: 53%
% Activation at 100 nM mAb (10 uM Forskolin), CRE-luc [1]: 37%
EC50 [M] (7.5 uM Forskolin), CRE-luc [1]: 1.1e-08 M
EC50 [M] (10 uM Forskolin), CRE-luc [1]: > 1e-07 M
% Activation at 500 nM antibody or Apelin-antibody fusion, PathHunter beta-Arrestin assay [2]: 6%
Binding Ratio of Geom. Mean to Unstained Cells [3]: 12 fold
Binding Ratio of Geom. Mean to Unstained Cells [4]: 3 fold
Binder: QRPRLSHKGPMPFGGGGSGGGGSGGGGS-{VH of anti‑myc 9E10 antibody} (antibody, part only; not given: anti-myc antibody chains, part only, ends and bridges not checked) [Anti-myc 9E10 Nter VH fusion with (G4S)3 linker (Apelin fused to an irrelevant anti-myc antibody)]
